Test results as given in article doi:10.1101/2020.06.03.132209 (bioRxiv, 2020).

Biological target: T1, Dehydrodolichyl diphosphate synthase (DHDDS), full length (1-333), untagged (human, UniProt Q86SQ9-1 1-333)
T1 sequence: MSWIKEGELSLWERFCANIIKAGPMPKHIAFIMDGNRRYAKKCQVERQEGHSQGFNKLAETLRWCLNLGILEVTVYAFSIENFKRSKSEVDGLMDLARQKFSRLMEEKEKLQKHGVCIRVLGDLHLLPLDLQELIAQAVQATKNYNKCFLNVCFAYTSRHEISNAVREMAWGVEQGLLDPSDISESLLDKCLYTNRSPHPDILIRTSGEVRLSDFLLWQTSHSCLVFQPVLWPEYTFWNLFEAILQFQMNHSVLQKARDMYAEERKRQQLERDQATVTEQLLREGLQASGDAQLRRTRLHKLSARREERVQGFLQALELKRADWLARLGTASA
Test: crystal structure

binding result: binds
B1: NgBR^79-293 (Nogo-B receptor, N-terminal 78 amino acids deleted) (domain or fragment)
chain: AAAHHRMRWRADGRSLEKLPVHMGLVITEVEQEPSFSDIASLVVWCMAVGISYISVYDHQGIFKRNNSRLMDEILKQQQELLGLDCSKYSPEFANSNDKDDQVLNCHLAVKVLSPEDGKADIVRAAQDFCQLVAQKQKRPTDLDVDTLASLLSSNGCPDPDLVLKFGPVDSTLGFLPWHIRLTEIVSLPSHLNISYEDFFSALRQYAACEQRLGK
